Target: the molecule itself
Assay: SEC; native whole-cell lysate of NIH3T3 AP1 KO cells on Yarra SEC-2000 (1 kDa to 300 kDa); fractions immunoblotted

B1: phosphoribosyl pyrophosphate synthetase 2 (PRPS2), mouse, endogenous (enzyme, UniProt Q9CS42 1-318, looked up)
chain: MPNIVLFSGSSHQDLSQRVADRLGLELGKVVTKKFSNQETSVEIGESVRGEDVYIIQSGCGEINDNLMELLIMINACKIASSSRVTAVIPCFPYARQDKKDKSRAPISAKLVANMLSVAGADHIITMDLHASQIQGFFDIPVDNLYAEPAVLQWIRENITEWRNCIIVSPDAGGAKRVTSIADRLNVEFALIHKERKKANEVDRMVLVGDVKDRVAILVDDMADTCGTICHAADKLLSAGATKVYAILTHGIFSGPAISRINSAAFEAVVVTNTIPQEDKMKHCSKIQVIDISMILAEAIRRTHNGESVSYLFSHVPL
notes: PRPS2, mouse, endogenous protein of NIH3T3 cells and mouse tissue; also called P2; source: endogenous, NIH3T3 (parental and CRISPR knockout clones), native lysate; endogenous, C57BL/6 mouse kidney, native lysate
- stoichiometry N: 2
